Measured values published in patent publication US20100196951.

Biological target: MazE antitoxin with the Thrombin-recognition sequence LVPRGS in place of VDGK at positions 38 to 41 (UniProt P0AE72)

For Biothinylated Thrombin (Novagen), which “removal of the MazE band on SDS-PAGE after overnight Thrombin treatment (0.01 to 0.08 units)” value is on record?
The value was “the residual MazE protein was successfully removed from the purified MazF sample by Thrombin treatment (lanes 2 to 5)”.
